Biological target: T1, PYCO1 (pyrenoid component 1), recombinant, residues 31 to 592 (Phaeodactylum tricornutum)
T1 chain: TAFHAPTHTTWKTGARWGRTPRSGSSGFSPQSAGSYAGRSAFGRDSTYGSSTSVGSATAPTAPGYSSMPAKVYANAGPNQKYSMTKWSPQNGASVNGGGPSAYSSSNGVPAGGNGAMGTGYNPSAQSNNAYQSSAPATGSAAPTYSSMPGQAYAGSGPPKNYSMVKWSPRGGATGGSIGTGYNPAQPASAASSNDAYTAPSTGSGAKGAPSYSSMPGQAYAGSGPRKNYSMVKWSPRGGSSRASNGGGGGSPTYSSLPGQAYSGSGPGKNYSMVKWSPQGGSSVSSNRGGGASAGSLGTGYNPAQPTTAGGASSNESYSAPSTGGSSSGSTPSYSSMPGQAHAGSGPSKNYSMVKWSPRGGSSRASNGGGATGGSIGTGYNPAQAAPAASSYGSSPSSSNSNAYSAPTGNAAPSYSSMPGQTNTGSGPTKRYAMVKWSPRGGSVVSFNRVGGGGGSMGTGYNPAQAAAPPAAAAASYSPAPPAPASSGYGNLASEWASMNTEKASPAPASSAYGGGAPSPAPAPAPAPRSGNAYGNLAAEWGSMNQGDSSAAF
Assay: co-sedimentation; heterotypic: Rubisco and PYCO1 (or variant) mixed at various ratios, 20 mM Tris-HCl pH 8.0, 150 mM NaCl; condensates sedimented and analysed
Conditions: both partners purified

B1: Phaeodactylum tricornutum Rubisco (L8S8 holoenzyme) (complex)
chain 1: MSQSVSERTRIKSDRYESGVIPYAKMGYWDAAYAVKNTDVLALFRITPQPGVDPVEAAAAVAGESSTATWTVVWTDLLTACDRYRAKAYRVDPVPNTTDQYFAFIAYECDLFEEGSLANLTASIIGNVFGFKAVSALRLEDMRIPHSYLKTFQGPATGVIVERERLNKYGIPLLGATVKPKLGLSGKNYGRVVYEGLKGGLDFLKDDENINSQPFMRWRERFLYCMEGINRASAATGETKGSYLNITAGTMEEVYKRAEYAKTVGSIVVMIDLVMGYTAIQSAAIWARDNDLILHLHRAGNSTYARQKNHGINFRVICKWMRMCGVDHIHAGTVVGKLEGDPLMIKGFYDTLLLTHLNVNLPYGIFFEMTWASLRKCMPVASGGIHCGQMHQLVHYLGDDVVLQFGGGTIGHPDGIQAGATANRVALEAMILARNEGADYFNSDIGPQILRNAAKTCGPLQTALDLWKDISFNYTSTDTSDFSVTPTANV
chain 2: MRLTQGCFSFLPDLTDQQIEKQIAYCITKGWAMNVEWTDDPHPRNSYWELWGLPLFDVKDPASVMFELREARKSCAAGYIRINAFNAAYGTESCVMSFIVNRPSNEPGFYLERQELEGRRIAYTTKSYSVQANPEGGRY
notes: Rubisco large subunit (LSU) of Phaeodactylum tricornutum, Form ID; Rubisco small subunit (SSU) of Phaeodactylum tricornutum, Form ID; For microscopy spiked with 0.3% or 0.6% atto-594-labeled PtRubisco; also called PtRubisco; diatom Rubisco; source: purified directly from diatoms (P. tricornutum); endogenous, soluble algal lysate (immunoprecipitation); copies: 8 + 8
stoichiometry N: 3 Rubisco (L8S8) per PYCO1

Reference: paper PMC10288592, “A linker protein from a red-type pyrenoid phase separates with Rubisco via oligomerizing sticker motifs” (Proceedings of the National Academy of Sciences of the …, 2023)
